Measured values reported in US20220002427A1, “BISPECIFIC ANTIBODY AGAINST BCMA AND CD3 AND AN IMMUNOLOGICAL DRUG FOR COMBINED USE IN TREATING MULTIPLE MYELOMA” (ENGMAB SARL, priority 2016, published 2022).

T1: huBCMA Fc(kih) (Homo sapiens, UniProt Q02223)
T1 construct: The extracellular domains of human and cynomolgus BCMA comprised methionine 4 to asparagine 53, and methionine 4 to asparagine 52, respectively; made in house; host or cells: HEK EBNA cells
T1 sequence (Q02223 4-53): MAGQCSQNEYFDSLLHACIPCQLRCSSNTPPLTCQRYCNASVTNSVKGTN

T2: huBCMA on HEK cells (Homo sapiens, UniProt Q02223)
T2 construct: expressed in transfected cells; host or cells: HEK cells (HEK-huBCMA)
T2 sequence (Q02223 1-184): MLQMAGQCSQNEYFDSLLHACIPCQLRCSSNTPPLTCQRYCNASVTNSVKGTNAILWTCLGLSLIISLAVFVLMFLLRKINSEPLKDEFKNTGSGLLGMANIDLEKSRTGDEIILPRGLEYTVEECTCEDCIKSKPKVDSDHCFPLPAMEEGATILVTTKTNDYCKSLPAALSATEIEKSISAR


What was measured:
huBCMA Fc(kih) = molecular target: T1, huBCMA Fc(kih); experiment: Biacore T200 SPR, anti-BCMA antibodies to recombinant human BCMA Fc(kih); format: binding; conditions: analyte huBCMA Fc(kih), 1:1 Langmuir, 25° C.
Protocol: (§1) Assessment of binding of anti-BCMA antibodies to recombinant BCMA by surface plasmon resonance (SPR) as follow. All SPR experiments were performed on a Biacore T200 at 25° C. with HBS-EP as running buffer (0.01 M HEPES pH 7.4, 0.15 M NaCl, 3 mM EDTA, 0.005% Surfactant P20, Biacore, Freiburg/Germany). The avidity of the interaction between anti-BCMA antibodies and recombinant BCMA Fc(kih) (human and cynomolgus) was determined. Biotinylated recombinant human and cynomolgus BCMA Fc(kih) were directly coupled on a SA chip following instructions (Biacore, Freiburg/Germany). The immobilization level ranged from 200 to 700 RU. The anti-BCMA antibodies were passed at a 2-fold concentration range (1.95 to 500 nM) with a flow of 30 μL/minutes through the flow cells over 120 seconds. The dissociation was monitored for 180 seconds. Bulk refractive index differences were corrected for by subtracting the response obtained on the reference flow cell. Here, the anti-BCMA antibodies were flown over an empty surface previously activated and deactivated as described in the standard amine coupling kit. Apparent kinetic constants were derived using the Biacore T200 Evaluation Software (vAA, Biacore AB, Uppsala/Sweden), to fit rate equations for 1:1 Langmuir binding by numerical integration, despite the bivalency of the interaction for comparison purposes. The affinity of the interaction between anti-BCMA antibodies and recombinant human BCMA Fc(kih) was also determined. Anti-human Fab antibody (GE Healthcare) was directly coupled on a CMS chip at pH 5.0 using the standard amine coupling kit (Biacore, Freiburg/Germany). The immobilization level was about 6500 RU. Anti-BCMA antibody was captured for 90 seconds at 25 nM. Recombinant human BCMA Fc(kih) was passed at a 4-fold concentration range (1.95 to 500 nM) with a flow of 30 μL/minutes through the flow cells over 120 seconds. The dissociation was monitored for 120 seconds. Bulk refractive index differences were corrected for by subtracting the response obtained on reference flow cell. Here, recombinant BCMA was flown over a surface with immobilized anti-human Fab antibody but on which HBS-EP has been injected rather than anti-BCMA antibody. Kinetic constants were derived using the Biacore T100 Evaluation Software (vAA, Biacore AB, Uppsala/Sweden), to fit rate equations for 1:1 Langmuir binding by numerical integration (Table 4).

cynoBCMA Fc(kih) = experiment: Biacore T200 SPR, anti-BCMA antibodies to recombinant cynomolgus BCMA Fc(kih); cyno/hu affinity gap; format: binding; conditions: analyte cynoBCMA Fc(kih), 1:1 Langmuir, 25° C.
Protocol: as §1, with “Here, recombinant BCMA was flown over a surface with immobilized anti-human Fab antibody but on which HBS-EP has been injected rather than anti-BCMA antibody.” left out
Based on the affinity values described in Example 2, the affinity of anti-BCMA antibodies to human BCMA vs. cynomolgus BCMA were compared and cyno/hu affinity ratio (gap) values were calculated (Table 5). Affinity cyno/hu gap was calculated as affinity of antibody to cynomolgus BCMA divided by affinity to human BCMA and means that BCMA antibody binds to human BCMA with x fold binding affinity than to cynomolgus BCMA, where x=cyno/hu gap value.

huBCMA on HEK cells = molecular target: T2, huBCMA on HEK cells; experiment: Binding of IgG variants on HEK-huBCMA cells (flow cytometry)
Excerpt: FIGS. 18A-18B. FIG. 18A: Binding affinity of BCMA antibodies on HEK-huBCMA cells as measured by flow cytometry. The anti-BCMA antibodies were used as first antibody then a secondary PE-labeled anti-human Fc was used as detection antibody. […] FIG. 18B: Binding affinity of BCMA antibodies on HEK-huBCMA cells as measured by flow cytometry. The anti-BCMA antibodies were used as first antibody then a secondary PE-labeled anti-human Fc was used as detection antibody.
Due to their experience the inventors selected out of these 70 clones further 27 clones based on their binding properties to huBCMA, cynoBCMA, murineBCMA, and ratio, measured in different assays. Out of these clones 4VH and 9VL clones were selected, which results in […]. Binding affinity on HEK-huBCMA cells was measured (FIG. 18 and Table 2E). […] However Mab21, Mab 22, Mab27, Mab33, Mab39, and Mab42 were selected due to their overall properties, like affinity for huBCMA, cynoBCMA, binding as bispecific antibody to BCMA-positive multiple myeloma cell lines H929, L363 and RPMI-8226 by flow cytometry, killing potency of myeloma cells H929, L363 and RPMI-8226, of viable myeloma plasma cells from patient bone marrow aspirates, and pharmacokinetics (PK)) and pharmacodynamics (killing of BCMA positive cells) data in cynomolgus monkeys.

Row | Koff (huBCMA Fc(kih)) [s⁻¹] | Kon (huBCMA Fc(kih)) [M⁻¹ s⁻¹] | binding to huBCMA on HEK cells compared with Mab 83A10 (huBCMA on HEK cells) | Molecule | Koff (cynoBCMA Fc(kih)) [s⁻¹] | Kon (cynoBCMA Fc(kih)) [M⁻¹ s⁻¹]
1 | 4.39e-05 | 851000 | not significantly better | Mab 21: anti-BCMA antibody, VH SEQ ID NO:10, VL SEQ ID NO:12 (antibody, V domains shown, Variable region VH; Variable region VL) VH: EVQLLESGGGLVQPGGSLRLSCAASGFTFSDNAMGWVRQAPGKGLEWVSAISGPGSSTYYADSVKGRFTISRDNSKNTLYLQMNSLRAEDTAVYYCAKVLGWFDYWGQGTLVTVSS VL: EIVLTQSPGTLSLSPGERATLSCRASQSVSEYYLAWYQQKPGQAPRLLIEHASTRATGIPDRFSGSGSGTDFTLTISRLEPEDFAVYYCQQYGYPPDFTFGQGTKVEIK | 0.000235 | 491000
2 | 0.000298 | 803000 | not significantly better | Mab 42: anti-BCMA antibody, VH SEQ ID NO:10, VL SEQ ID NO:14 (antibody, V domains shown, Variable region VH; Variable region VL Mab42) VH: EVQLLESGGGLVQPGGSLRLSCAASGFTFSDNAMGWVRQAPGKGLEWVSAISGPGSSTYYADSVKGRFTISRDNSKNTLYLQMNSLRAEDTAVYYCAKVLGWFDYWGQGTLVTVSS VL: EIVLTQSPGTLSLSPGERATLSCRASQSVSDEYLSWYQQKPGQAPRLLIHSASTRATGIPDRFSGSGSGTDFTLAISRLEPEDFAVYYCQQYGYPPDFTFGQGTKVEIK | 0.000453 | 707000
3 | 3.55e-05 | 200000 |  | Mab 33: anti-BCMA antibody, VH SEQ ID NO:39, VL SEQ ID NO:12 (antibody, V domains shown, Mab33 VH; Variable region VL) VH: EVQLLESGGGLVQPGGSLRLSCAASGFTFYTNAMGWVRQAPGKGLEWVSAINRFGGSTYYADSVKGRFTISRDNSKNTLYLQMNSLRAEDTAVYYCAKVLGWFDYWGQGTLVTVSS VL: EIVLTQSPGTLSLSPGERATLSCRASQSVSEYYLAWYQQKPGQAPRLLIEHASTRATGIPDRFSGSGSGTDFTLTISRLEPEDFAVYYCQQYGYPPDFTFGQGTKVEIK | 9.76e-05 | 132000
4 | 5.58e-05 | 361000 | not significantly better | Mab 39: anti-BCMA antibody, VH SEQ ID NO:40, VL SEQ ID NO:12 (antibody, V domains shown, Mab39 VH; Variable region VL) VH: EVQLLESGGGLVQPGGSLRLSCAASGFTFTQNAMGWVRQAPGKGLEWVSAISPTGFSTYYADSVKGRFTISRDNSKNTLYLQMNSLRAEDTAVYYCAKVLGWFDYWGQGTLVTVSS VL: EIVLTQSPGTLSLSPGERATLSCRASQSVSEYYLAWYQQKPGQAPRLLIEHASTRATGIPDRFSGSGSGTDFTLTISRLEPEDFAVYYCQQYGYPPDFTFGQGTKVEIK | 0.000467 | 215000
5 | 5.15e-05 | 814000 | not significantly better | Mab 22: anti-BCMA antibody, VH SEQ ID NO:10, VL SEQ ID NO:13 (antibody, V domains shown, Variable region VH; Variable region VL Mab22) VH: EVQLLESGGGLVQPGGSLRLSCAASGFTFSDNAMGWVRQAPGKGLEWVSAISGPGSSTYYADSVKGRFTISRDNSKNTLYLQMNSLRAEDTAVYYCAKVLGWFDYWGQGTLVTVSS VL: EIVLTQSPGTLSLSPGERATLSCRASQSVSSYYLAWYQQKPGQAPRLLISGAGSRATGIPDRFSGSGSGTDFTLTISRLEPEDFAVYYCQQYGYPPDFTFGQGTKVEIK | 0.000442 | 454000
6 | 5.93e-05 | 359000 | not significantly better | Mab 27: anti-BCMA antibody, VH SEQ ID NO:38, VL SEQ ID NO:12 (antibody, V domains shown, Mab27 VH; Variable region VL) VH: EVQLLESGGGLVQPGGSLRLSCAASGFTFSSAPMGWVRQAPGKGLEWVSAISYIGHTYYADSVKGRFTISRDNSKNTLYLQMNSLRAEDTAVYYCAKVLGWFDYWGQGTLVTVSS VL: EIVLTQSPGTLSLSPGERATLSCRASQSVSEYYLAWYQQKPGQAPRLLIEHASTRATGIPDRFSGSGSGTDFTLTISRLEPEDFAVYYCQQYGYPPDFTFGQGTKVEIK | 0.000455 | 216000
